T1: human IL-17F (human, UniProt Q96PD4 31-163, biotinylated with Sulfo-NHS-LC-Biotin in the AlphaScreen assays only)
T1 construct: also called hIL-17F; recombinant human IL-17F
T1 sequence: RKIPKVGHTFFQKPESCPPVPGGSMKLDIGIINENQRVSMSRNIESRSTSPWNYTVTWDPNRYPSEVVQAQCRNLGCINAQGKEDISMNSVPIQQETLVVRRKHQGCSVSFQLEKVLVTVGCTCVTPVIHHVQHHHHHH

T2: human IL-17F (human, UniProt Q96PD4 31-163)
T2 construct: made in Hek293 cells (GenBank AF384857); also called hIL-17F; hIL17F
T2 sequence: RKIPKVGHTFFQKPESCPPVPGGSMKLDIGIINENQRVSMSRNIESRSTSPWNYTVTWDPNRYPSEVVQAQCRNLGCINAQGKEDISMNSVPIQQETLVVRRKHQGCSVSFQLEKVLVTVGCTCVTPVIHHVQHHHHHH


Legend:
human IL-17A [1] = target: T3, human IL-17A (human, UniProt Q16552 24-155, biotinylated with Sulfo-NHS-LC-Biotin in the AlphaScreen assays only); assay: SPR Biacore, hIL-17A on chip; periplasmic extract (*); NB = no binding
T3 construct: also called hIL-17A; recombinant human IL-17A
T3 sequence (Q16552 other isoform, or with tags, fused parts or gaps): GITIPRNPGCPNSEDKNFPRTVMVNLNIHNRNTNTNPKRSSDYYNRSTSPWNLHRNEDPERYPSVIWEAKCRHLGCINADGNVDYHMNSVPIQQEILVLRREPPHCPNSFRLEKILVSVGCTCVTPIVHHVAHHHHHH
Procedure: (§1) Off-rates of the periplasmic extracts containing anti-IL-17 Nanobodies were measured by Surface Plasmon Resonance (SPR) using a Biacore T100 instrument. […] Periplasmic extracts containing IL-17 neutralizing Nanobodies were injected for 2 minutes at a flow rate of 45 μl/min to allow binding to chip-bound antigen. Next, binding buffer without periplasmic extracts was sent over the chip at the same flow rate to allow spontaneous dissociation of bound Nanobody. From the sensorgrams obtained for the different periplasmic extracts koff-values (k₄) were calculated.

[2] = target: T4, human IL-17A/F heterodimer (human, UniProt Q16552 24-155; Q96PD4 31-163, limits assumed); assay: SPR
T4 construct: produced in E. coli, bought from R&D Systems (Cat 5194-IL/CF); also called hIL-17A/F
T4 sequence (Q16552 24-155 limits assumed, chain 1 of 2, one chain of several): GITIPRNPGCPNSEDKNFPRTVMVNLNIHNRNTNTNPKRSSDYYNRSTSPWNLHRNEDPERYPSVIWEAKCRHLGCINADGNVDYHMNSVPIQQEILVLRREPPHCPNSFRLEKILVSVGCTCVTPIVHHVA

human IL-17A [3] = target: T5, human IL-17A (human, UniProt Q16552 24-155); assay: SPR
T5 construct: secreted form (GenBank U32659) expressed in Hek293 with C-terminal 6-His; also called hIL-17A; IL-17A-6HIS
T5 sequence (Q16552 other isoform, or with tags, fused parts or gaps): as the sequence (Q16552 other isoform, or with tags, fused parts or gaps) above

human IL-17A [4] = target: T5, human IL-17A; assay: AlphaScreen IL-17A-IL-17RA, average
[5] = target: T6, human IL-17A/F heterodimer (human, UniProt Q16552 24-155; Q96PD4 31-163, limits assumed, biotinylated with Sulfo-NHS-LC-Biotin in the AlphaScreen assays only); assay: AlphaScreen competition, hIL-17A/F - IL-17RA-Fc
T6 construct: also called hIL-17A/F
Target sequence in this assay (Q16552 24-155 limits assumed, one chain of several): as the sequence (Q16552 24-155 limits assumed, chain 1 of 2, one chain of several) above
Procedure: (§2) To this mixture, the IL-17RA or IL-17RC Fc-fusions, Acceptor beads and the streptavidin Donor beads were added and further incubated for 1 hour at RT.

[6] = target: T6, human IL-17A/F heterodimer; assay: SPR Biacore, hIL-17A/F on chip; purified protein
Target sequence in this assay (Q16552 24-155 limits assumed, chain 1 of 2, one chain of several): as above

human IL-17F [7] = target: T1, human IL-17F; assay: AlphaScreen competition, hIL-17F - IL-17RC-Fc
Procedure: as §2

human IL-17F [8] = target: T1, human IL-17F; assay: cell-based or functional assay
[9] = target: T6, human IL-17A/F heterodimer; assay: cell-based or functional assay
Target sequence in this assay (Q16552 24-155 limits assumed, chain 1 of 2, one chain of several): as above

human IL-17F [10] = target: T1, human IL-17F; assay: AlphaScreen competition, hIL-17F - IL-17RA-Fc
Procedure: as §2

[11] = target: T6, human IL-17A/F heterodimer; assay: AlphaScreen competition, hIL-17A/F - IL-17RC-Fc
Target sequence in this assay (Q16552 24-155 limits assumed, chain 1 of 2, one chain of several): as above
Procedure: as §2

human IL-17F [12] = target: T2, human IL-17F; assay: AlphaScreen IL-17F-IL-17RC; vs IL17MS16A04
human IL-17F [13] = target: T1, human IL-17F; assay: SPR Biacore, hIL-17F on chip; purified protein
Procedure: as §1

| Binder | binding result (human IL-17A [1]) | koff [2] [s⁻¹] | koff (human IL-17A [3]) [s⁻¹] | IC50 (human IL-17A [4]) [nM] | further results |
| --- | --- | --- | --- | --- | --- |
| 07B11 (VHH, Class 3 Nanobody (anti-IL-17F); not shown: c-myc, His6 tag) VHH: EVQLVESGGGLVQAGGSLRLSCVASGRAFSSYVMGWFRQAPGMEREFVALIRWSDGITGYVDSVKGRFTISRDNAKNTVYLQMNSLKPEDTAVYYCAAAVRPGDYDYWGQGTQVTVSS | no binding | – | – | – | – |
| IL17MS3010 (VHH, name in Kabat numbering, also called IL17MS3010 basic) VHH: EVQLVESGGGLVQPGGSQRLSCTASGTIVNIHVMGWYRQAPGKQRELVALIFSGGSADYADSVKGRFTISRDNSKNTVYLQMNSLRAEDTAVYYCAAEIGYYSGGTYYSSEAHWGQGTLVTVSS | – | 0.000217 | 0.00013 | 0.184 | – |
| IL17MS3011 (VHH, name in Kabat numbering, basic + Q18L; Kabat positions) VHH: EVQLVESGGGLVQPGGSLRLSCTASGTIVNIHVMGWYRQAPGKQRELVALIFSGGSADYADSVKGRFTISRDNSKNTVYLQMNSLRAEDTAVYYCAAEIGYYSGGTYYSSEAHWGQGTLVTVSS | – | 0.000223 | 0.000132 | 0.139 | – |
| IL17MS3012 (VHH, name in Kabat numbering, basic + T23A; Kabat positions) VHH: EVQLVESGGGLVQPGGSQRLSCAASGTIVNIHVMGWYRQAPGKQRELVALIFSGGSADYADSVKGRFTISRDNSKNTVYLQMNSLRAEDTAVYYCAAEIGYYSGGTYYSSEAHWGQGTLVTVSS | – | 0.000228 | 0.000137 | 0.101 | – |
| 24B08 (VHH, Class 3 Nanobody (anti-IL-17F); not shown: c-myc, His6 tag) VHH: EVQLVESGGGLVQAGGSLRLSCAVSGGTFSTYKMGWFRQAPGKEREIVARISTNGPTAYAEFVKGRFTVSRENTKNTVYLQMNSLNIEDTAVYYCAAGYDSLFAGYDYWGQGTQVTVSS | no binding | – | – | – | – |
| 07B09 (VHH, Class 3 Nanobody (anti-IL-17F); not shown: c-myc, His6 tag) VHH: EVQLVESGGGLVQAGGSLRLSCGASGGTFSSYATGWFRQAPGKEREFVAVLRWSDGHTAYADSVKGRFTISRDGAKNTMYLQMSSLKPEDTAIYYCTTATRPGEWDYWGQGTQVTVSS | no binding | – | – | – | – |
| IL17MS3059 (VHH, variant of IL17MS16A04; Kabat numbering) VHH: DVQLVESGGGLVQPGGSLRLSCAASGRTFSSYVVGWFRQAPGKEREFVGAISGSGESIYYAVSEKGRFTISRDNSKNTLYLQMNSLRPEDTAVYYCTADQEFGYLRFGRSEYWGQGTLVTVSS | – | – | – | – | IC50 fold difference vs WT (human IL-17F [12]): 6.7 fold |
| IL17MS3064 (VHH, variant of IL17MS16A04; Kabat numbering) VHH: DVQLVESGGGLVQPGGSLRLSCAASGRTFSSYVVGWFRQAPGKEREFVGAISGSGDTIYYAVSEKGRFTISRDNSKNTLYLQMNSLRPEDTAVYYCTADQEFGYLRFGRSEYWGQGTLVTVSS | – | – | – | – | IC50 fold difference vs WT (human IL-17F [12]): 30.3 fold |
| IL17MS3065 (VHH, variant of IL17MS16A04; Kabat numbering) VHH: DVQLVESGGGLVQPGGSLRLSCAASGRTFSSYVVGWFRQAPGKEREFIGAISGSGDTIYYAVSEKGRFTISRDNSKNTLYLQMNSLRPEDTAVYYCTADQEFGYLRFGRSEYWGQGTLVTVSS | – | – | – | – | IC50 fold difference vs WT (human IL-17F [12]): 12.7 fold |
| IL17MS3062 (VHH, variant of IL17MS16A04; Kabat numbering) VHH: EVQLVESGGGLVQPGGSLRLSCAASGRTFSSYVVGWFRQAPGKEREFVGAISGSGESIYYAVSEKGRFTISRDNSKNTLYLQMNSLRPEDTAVYYCTADQEFGYLRFGRSEYWGQGTLVTVSS | – | – | – | – | IC50 fold difference vs WT (human IL-17F [12]): 7.4 fold |
| 08A08 (VHH, Class 3 Nanobody (anti-IL-17F); not shown: c-myc, His6 tag) VHH: EVQLVESGGGLVQAGGSLRLSCAASGRTFRPYRMGWFRRAPGKAREFVTLISWSSGRTSYADSVKGRFTISRDSAKNAVYLQMDNLKPEDTAVYFCAVDLSGDAVYDSWGQGTQVTVSS | no binding | – | – | – | koff [6]: 0.0079 s⁻¹; IC50 (human IL-17F [7]): 1.3 nM; IL-17F-induced IL-6 production in HT-1080 cells, Emax (human IL-17F [8]): 62%; IL-17F-induced IL-6 production in HT-1080 cells, IC50 (human IL-17F [8]): 206 nM; koff (human IL-17F [13]): 0.048 s⁻¹; IC50 (human IL-17F [10]): 3.84 nM; IC50 [11]: 19.7 nM |

The next lines start with results.

| binding result (human IL-17A [1]) | koff [2] [s⁻¹] | koff (human IL-17A [3]) [s⁻¹] | IC50 (human IL-17A [4]) [nM] | Binder | further results |
| --- | --- | --- | --- | --- | --- |
| – | 0.000185 | 0.000116 | 0.081 | IL17MS3013 (VHH, name in Kabat numbering, basic + A84P; Kabat positions) VHH: EVQLVESGGGLVQPGGSQRLSCTASGTIVNIHVMGWYRQAPGKQRELVALIFSGGSADYADSVKGRFTISRDNSKNTVYLQMNSLRPEDTAVYYCAAEIGYYSGGTYYSSEAHWGQGTLVTVSS | – |
| – | 0.000242 | 0.000144 | 0.163 | IL17MS3017 (VHH, name in Kabat numbering, basic + Q18L, T23A, A84P; Kabat positions) VHH: EVQLVESGGGLVQPGGSLRLSCAASGTIVNIHVMGWYRQAPGKQRELVALIFSGGSADYADSVKGRFTISRDNSKNTVYLQMNSLRPEDTAVYYCAAEIGYYSGGTYYSSEAHWGQGTLVTVSS | – |
| no binding | – | – | – | 08B07 (VHH, Class 3 Nanobody (anti-IL-17F); not shown: c-myc, His6 tag) VHH: EVQLVESGGGLVQPGGSLRLSCAASGRDFRVKNVGWIRQAPGKQRELVATITVGGSTNYADSAKGRFTISRDNAKNTVYLQMSSLKPEDTAVYYCNAVATVTDYTGTYSDGFWGQGTQVTVSS | – |
| no binding | – | – | – | 12A09 (VHH, Class 3 Nanobody (anti-IL-17F); not shown: c-myc, His6 tag) VHH: EVQLVESGGGLVQPGGSLRLSCAASGFTFSSYRMAWVRQAPGKGLEWVSSTSTGGEMTNYADSVKGRFTISRDNAKNTLHLQMNSLKPEDTALYYCAAGTSAGHWSTGGQGTQVTVSS | IC50 [5]: > 250 nM; koff [6]: 0.017 s⁻¹; IC50 (human IL-17F [7]): 0.612 nM; IL-17F-induced IL-6 production in HT-1080 cells, Emax (human IL-17F [8]): 91%; IL-17F-induced IL-6 production in HT-1080 cells, IC50 (human IL-17F [8]): 105 nM; IL-17A/F-induced IL-6 production in HT-1080 cells, Emax [9]: 41.5%; IL-17A/F-induced IL-6 production in HT-1080 cells, IC50 [9]: 100 nM; IC50 (human IL-17F [10]): 1.84 nM; IC50 [11]: 33.2 nM |
| no binding | – | – | – | 24G10 (VHH, Class 3 Nanobody (anti-IL-17F); not shown: c-myc, His6 tag) VHH: EVQLVESGGGLVQAGGSLRLSCGAAGGTFSSYATGWFRQAPGKEREFVAVFRWSDSHTAYADSVKGRFTISRDGAKNTLYLQMSSLKPEDTAIYYCTTATRPGEWDYWGQGTQVTVSS | – |

From patent publication US20210130452A1 (Merck KGaA, published 2021)
